Assay results reported in IntAct's records for PubMed 19524571.

B1: Cyclin-dependent kinase 14 (Homo sapiens), O94921 (parent)
chain: MCDLIEPQPAEKIGKMKKLRRTLSESFSRIALKKDDTTFDEICVTKMSTRNCQGMDSVIKPLDTIPEDKKVRVQRTQSTFDPFEKPANQVKRVHSENNACINFKTSSTGKESPKVRRHSSPSSPTSPKFGKADSYEKLEKLGEGSYATVYKGKSKVNGKLVALKVIRLQEEEGTPFTAIREASLLKGLKHANIVLLHDIIHTKETLTLVFEYVHTDLCQYMDKHPGGLHPDNVKLFLFQLLRGLSYIHQRYILHRDLKPQNLLISDTGELKLADFGLARAKSVPSHTYSNEVVTLWYRPPDVLLGSTEYSTCLDMWGVGCIFVEMIQGVAAFPGMKDIQDQLERIFLVLGTPNEDTWPGVHSLPHFKPERFTLYSSKNLRQAWNKLSYVNHAEDLASKLLQCSPKNRLSAQAALSHEYFSDLPPRLWELTDMSSIFTVPNVRLQPEAGESMRAFGKNNSYGKSLSNSKH

Variants of: B1
Conditions: with ccny_human CCNY
In the case of K164R, the “effect of a mutation on the interaction” value is reported as “decreasing interaction strength”.
